Measurements from US20130302399A1 (ALDERBIO, published 2013).
Residue numbers refer to the chain shown, from its start.

B1: Ab6 (antibody, human IgG1, kappa, N297A, V domains shown)
VH: QEQLEESGGDLVKPEGSLTLTCTASGFSFSSNYWICWVRQAPGKGLEWIGCIRDGGGTYYASWAKGRLTISMTSSTTVTLQLNSLTAADTATYFCASDINDGWLGQFNLWGPGTLVTVSS
VL: DIVMTQTPASVEVAVGGTVTIKCQASQSISAYLAWYQQKPGQPPKLLIYRAYTLASGVPSRFKGSGSGTQFTLTISDLECADAATYYCQSYYSVTTNTYGNTFGGGTEVVVKR
notes: also called antibody Ab6
B2: Ab16 (antibody, human IgG1, kappa, N297A, V domains shown)
VH: B1 VH with E5V, D10G, K13Q, N32D, T58S, S62N, T79G, Q81K, L82M, N83T
VL: B1 VL with V13A, A31S, Y52S, K63S, Q70E, N97V
notes: also called antibody Ab16
B3: Ab14 (antibody, human IgG1, kappa, N297A, V domains shown)
VH: QEQLEESGGDLVKPEGSLTLTCTGSGFSFSSIAYMCWIRQAPGKGLEWIGCIGSGSGNTYYANWAKGRFTISKSSSTTVTLQMTSLTAADTATYFCASDTNNGWLGQFNLWGQGTLVTVSS
VL: B1 VL with E12S, V13A, K22N, A31S, Y52S, S90G
notes: also called antibody Ab14
B4: Ab10 (antibody, human IgG1, kappa, N297A, V domains shown)
VH: B1 VH with N32S, G50A, D54A, T58N, S62N, L68F, M72R, L82M, N83T
VL: B1 VL with D1N, V13A, A31N, A51T, Y52S, N97V, T98A
notes: also called antibody Ab10
B5: Ab17 (antibody, human IgG1, kappa, N297A, V domains shown)
VH: QEQLEESGGDLVKPEGSLTLTCTASGFSFSSSYWICWVRQAPGKGLEWIGCIRPGSADYYASWAKGRFTISRASSSTVTLQMTSLTAADTATYFCASDINDGWLGQFNLWGPGTLVTVSS
VL: B1 VL with I2V, V13A, Q27L, S30A, A31D, Q37L, Y52S, Q70E, F71Y
notes: also called antibody Ab17
B6: Ab7 (antibody, human IgG1, kappa, N297A)
heavy: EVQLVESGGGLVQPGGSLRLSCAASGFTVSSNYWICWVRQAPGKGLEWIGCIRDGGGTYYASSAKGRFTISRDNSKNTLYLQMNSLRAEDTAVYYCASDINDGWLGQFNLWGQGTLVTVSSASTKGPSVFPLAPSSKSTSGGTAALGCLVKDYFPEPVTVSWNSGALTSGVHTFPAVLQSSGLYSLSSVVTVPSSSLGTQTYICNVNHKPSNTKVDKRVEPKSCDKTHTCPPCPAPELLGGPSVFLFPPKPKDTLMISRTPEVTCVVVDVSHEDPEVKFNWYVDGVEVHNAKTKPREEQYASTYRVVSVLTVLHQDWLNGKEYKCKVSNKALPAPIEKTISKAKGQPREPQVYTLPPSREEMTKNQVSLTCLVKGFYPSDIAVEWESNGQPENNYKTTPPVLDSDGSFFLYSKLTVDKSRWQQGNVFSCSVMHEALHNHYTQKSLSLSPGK
light: ADIVMTQSPSSLSASVGDRVTIKCQASQSISAYLAWYQQKPGKVPKLLIYRAYTLASGVPSRFSGSGSGTDFTLTISSLQPEDVATYYCQSYYSVTTNTYGNTFGGGTKVEIKRTVAAPSVFIFPPSDEQLKSGTASVVCLLNNFYPREAKVQWKVDNALQSGNSQESVTEQDSKDSTYSLSSTLTLSKADYEKHKVYACEVTHQGLSSPVTKSFNRGEC
notes: also called antibody Ab7
B7: Ab12 (antibody, human IgG1, kappa, N297A)
heavy: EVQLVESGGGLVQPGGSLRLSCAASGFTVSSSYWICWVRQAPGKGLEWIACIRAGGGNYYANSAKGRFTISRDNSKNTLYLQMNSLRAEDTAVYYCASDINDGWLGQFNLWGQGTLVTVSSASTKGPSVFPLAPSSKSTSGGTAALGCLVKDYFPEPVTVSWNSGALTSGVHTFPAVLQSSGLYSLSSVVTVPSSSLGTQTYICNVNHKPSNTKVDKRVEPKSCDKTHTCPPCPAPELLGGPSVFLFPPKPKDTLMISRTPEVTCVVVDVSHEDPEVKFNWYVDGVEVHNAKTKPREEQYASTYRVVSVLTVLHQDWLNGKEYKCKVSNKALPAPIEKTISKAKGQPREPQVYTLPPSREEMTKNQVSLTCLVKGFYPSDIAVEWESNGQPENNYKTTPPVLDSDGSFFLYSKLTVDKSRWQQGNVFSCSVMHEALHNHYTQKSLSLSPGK
light: B6 light with D2N, A32N, A52T, Y53S, N98V, T99A
notes: also called antibody Ab12
B8: Ab11 (antibody, human IgG1, kappa, N297A)
heavy: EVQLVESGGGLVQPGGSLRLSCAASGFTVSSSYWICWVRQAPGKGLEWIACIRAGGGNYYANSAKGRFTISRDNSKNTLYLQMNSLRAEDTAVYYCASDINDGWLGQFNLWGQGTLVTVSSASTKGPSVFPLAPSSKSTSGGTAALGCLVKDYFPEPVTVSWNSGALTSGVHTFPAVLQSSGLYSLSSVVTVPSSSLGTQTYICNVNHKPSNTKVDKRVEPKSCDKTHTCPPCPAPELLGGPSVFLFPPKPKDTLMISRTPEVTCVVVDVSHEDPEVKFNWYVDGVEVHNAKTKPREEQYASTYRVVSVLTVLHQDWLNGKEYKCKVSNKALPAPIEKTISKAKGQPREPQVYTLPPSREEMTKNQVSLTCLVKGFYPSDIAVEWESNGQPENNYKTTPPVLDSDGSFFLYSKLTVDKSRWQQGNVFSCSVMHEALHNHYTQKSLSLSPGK
light: B6 light with D2N, K23T, A32N, A52T, Y53S, N98V, T99A
notes: also called antibody Ab11
B9: Ab18 (antibody, human IgG1, kappa, N297A)
heavy: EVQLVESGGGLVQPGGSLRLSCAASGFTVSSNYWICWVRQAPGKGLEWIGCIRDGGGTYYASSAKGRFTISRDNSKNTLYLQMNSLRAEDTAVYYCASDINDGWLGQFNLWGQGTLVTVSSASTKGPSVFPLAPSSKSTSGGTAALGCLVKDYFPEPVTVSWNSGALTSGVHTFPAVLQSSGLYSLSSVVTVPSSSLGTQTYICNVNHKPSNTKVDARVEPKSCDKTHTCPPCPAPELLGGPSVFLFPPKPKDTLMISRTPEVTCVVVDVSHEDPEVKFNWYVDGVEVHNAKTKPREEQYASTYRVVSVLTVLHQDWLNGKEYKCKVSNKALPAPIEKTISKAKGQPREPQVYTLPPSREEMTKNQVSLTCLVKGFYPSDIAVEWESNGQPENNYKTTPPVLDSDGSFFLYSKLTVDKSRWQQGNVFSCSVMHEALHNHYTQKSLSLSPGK
light: B6 light
notes: also called antibody Ab18
B10: Ab4 (antibody, human IgG1, kappa, N297A, V domains shown)
VH: QSVEESGGRLVTPGTPLTLTCTVSGIDLSSYAMIWVRQAPEKGLEYIGYIGGIDSTYYASWAKGRFTISKTSTTVDLKMTSPTTEDTATYFCGRWSGTSGYNTIWGPGTLVTVSS
VL: DVVMTQTPASVEAAVGGTVTIKCQASQSIYSNLAWYQQKPGQPPKLLIYGASNLASGVSSRFKGSRSGTEYTLTISDLECADAATYYCQCTGGGDSGNTFGGGTEVVVKR
notes: also called antibody Ab4
B11: Ab13 (antibody, human IgG1, kappa, N297A, V domains shown)
VH: QSVEESGGRLVTPGTPLTLTCTVSGIDLSTYGVGWVRQAPGKGLEYIGIISSSGSTYYASWAKGRFTISKTSSTTVDLKMTSLTTEDTATYFCARDWSSTTGYYGYFNMWGPGTLVTVSS
VL: AFELTQTPSPVSAAVGGTVTIKCQASQSISTALAWYQQKPGQPPKLLIYGASNLESGVPSRFSGSGSGTQFTLTISDLECADAAIYYCQSSYGSSTLAFGGGTEVVVKR
notes: also called antibody Ab13
B12: Ab3 (antibody, human IgG1, kappa, N297A, V domains shown)
VH: QSVEESGGRLVTPGGSLTLTCTASGFSLSSYYMSWVRQAPGKGLEWIGIIYPSGSTYYASWAKGRFTISKTSTTVDLKITSPTVEDTATYFCARGGAYATLNLWGPGTLVTVSS
VL: AVLTQTPSPVSAAVGGTVTISCQSSQSVYHNNLLSWYQQKPGQPPKLLIYDASKLTSGVSSRFSGSGSGTQFTLTISGVQCDDAATYYCLGGYDDDADNGFGGGTEVVVKR
notes: also called antibody Ab3
B13: Ab15 (antibody, human IgG1, kappa, N297A, V domains shown)
VH: QEQLEESGGDLVKPEGSLTLTCTASGFSFSSSYWICWVRQAPGKGLEWIACIDAGNSGSTYYASWAKGRFTISKASSTTVTLQMTSLTAADTATYFCASDLNDGWLGQFNLWGPGTLVTVSS
VL: NIVMTQTPSPVSGAVGGTVTIKCQASQSISDYLAWYQQKPGQPPKLLIYRASTLASGVPSRFRGSGSGTEYTLTITDLECADAATYYCQSYYSVTTNTYGNTFGGGTEVVVKR
notes: also called antibody Ab15
B14: Ab8 (antibody, human IgG1, kappa, N297A, V domains shown)
VH: QEQLVESGGGLVQPEGSLTLTCTASGFSFTSDYYMCWVRQAPGKGLEWIGCISTGDGSTYYASWAKGRFTISKPSSTTVTLQMTRLTAADTATYFCARDRYYSYAYGAYVYASDLWGPGTLVTVSS
VL: DIVMTQTPASVSEPVGGTVTINCQASESIRNYLSWYQQKPGQRPKLLIYGASTLASGVPSRFKGSGSGTDFTLTISDLECADAATYYCQSNYGISSRSYVNGFGGGTEVVVKR
notes: also called antibody Ab8
B15: Ab1 (antibody, human IgG1, kappa, N297A, V domains shown)
VH: QSVEESGGRLVTPGTPLTLTCTVSGFSLSSYWMTWVRQAPGKGLEYIGIISSSGSTYYATWAKGRFTISKTSSTTVDLEITSPTTEDTATYFCARDSAFSSGLEFNIWGPGTLVTVSS
VL: AYDLTQTPASVEVAVGGTVTIKCQASQSVYSNWLSWYQQKPGQPPKLLIYDASDLASGVPSRFKGSGSGTQFTLTISGVQCDDAATYYCQQGQSSSDIDNTFGGGTEVVVKR
notes: also called antibody Ab1
B16: Ab5 (antibody, human IgG1, kappa, N297A, V domains shown)
VH: QSVEESGGRLVTPGTPLTLTCTVSGFSLSSYAMSWVRQAPGKGLEWIGIISNSGTTYYASWAKGRFTISKTSTTVDLKITSPTTEDTATYFCARGIYWYWRVFNLWGPGTLVTVSS
VL: AVLTQTPSPVSAAVGGTVTINCQASQSVYNNLLSWYQQKPGQPPKLLIYDASNLASGVPDRFSGSGSGTQFTLTISGVQCDDAATYYCLGGYDDDADNAFGGGTEVVVKR
notes: also called antibody Ab5
B17: Ab9 (antibody, human IgG1, kappa, N297A, V domains shown)
VH: QSVEESGGRLVTPGTPLTLTCTVSGIDLSSYAMGWVRQAPGKGLEYIGIIVSYGPTYYASWAKGRFTISKTSTTVDLKITSPTAEDTATYFCARDLDANSSGYYGCFNIWGQGTLVTVSS
VL: AVVLTQTPASVSAAVGGTVTIKCQASQSISTALAWYQQKPGQPPKLLIYAASPLASGVSSRFKSSGSGTEFTLTISDLECADAATYYCQSYYGSSNIAFGGGTELEILR
notes: also called antibody Ab9
B18: Ab2 (antibody, human IgG1, kappa, N297A, V domains shown)
VH: QSVEESGGRLVTPGTPLTLTCTVSGFSLSSYAMSWVRQAPGKGLEWIGIIDAIDNTYYASWAKGRFTISKTSTTVDLKMTSLTTGDTATYFCARASILGYSIATGFNIWGPGTLVTVSS
VL: AYDMTQTPASVEVAVGGTVTIKCQASQSISSHLAWYQQKSGQPPKLLIYRASTLESGVSSRFKGSGSGTEFTLTISDLECADAATYYCQQGYGVSDVDNGFGGGTEVVVKR
notes: also called antibody Ab2
B19: Ab19 (antibody, human IgG1, kappa, N297A, V domains shown)
VH: EVQLVESGGGLVQPGGSLRLSCAASGIDLSSYAMGWVRQAPGKGLEYIGIIVSYGPTYYASWAKGRFTISRDNSKNTVYLQMNSLRAEDTATYFCARDLDAQSSGYYGAFNIWGQGTLVTVSS
VL: DIQMTQSPSTLSASVGDRVTITCQASQSISTALAWYQQKPGKAPKLLIYAASPLASGVPSRFSGSGSGTEFTLTISSLQPDDFATYYCQSYYGSSNIAFGGGTKVEIKR
notes: also called antibody Ab19
B20: Ab20 (antibody, human IgG1, kappa, N297A, V domains shown)
VH: B19 VH with N76S
VL: B19 VL
notes: also called antibody Ab20

Target: T1, human Proprotein Convertase Subtilisin-like/Kexin type 9 (human, UniProt Q8NBP7 31-692, limits assumed)
T1 construct: Biotinylated in the ELISAs; unlabelled analyte in BLI and SPR; also called human PCSK9; PCSK9
Assay: BLI (Octet QK), biotinylated antibody on streptavidin sensors, human PCSK9 in solution, 1:1 fit
Procedure: Binding affinities of monoclonal antibodies for PCSK9 were estimated using Bio-Layer Interferometry (BLI) on the Octet QK (ForteBio). Biotinylated antibody was immobilized at different densities to the surface of Streptavidin (SA) Biosensors. A dilution series of human PCSK9 prepared in 1× Kinetics Buffer (NaCl 0.0138 M; KCl 0.00027 M; 0.1 mg/mL BSA, 0.002% Tween and 0.005% Sodium Azide; pH 7.4, at 25° C.) purchased from the manufacturer (ForteBio) was used to query the antibodies. At our chosen concentrations of antigen (˜0.25 μg/mL-2 μg/mL) association times of 15 minutes and dissociation times of 25 minutes were used with the Octet Analysis Software (v6.4, ForteBio), to globally fit data using a 1:1 Langmuir binding model.

T1 sequence (Q8NBP7 31-692 limits assumed): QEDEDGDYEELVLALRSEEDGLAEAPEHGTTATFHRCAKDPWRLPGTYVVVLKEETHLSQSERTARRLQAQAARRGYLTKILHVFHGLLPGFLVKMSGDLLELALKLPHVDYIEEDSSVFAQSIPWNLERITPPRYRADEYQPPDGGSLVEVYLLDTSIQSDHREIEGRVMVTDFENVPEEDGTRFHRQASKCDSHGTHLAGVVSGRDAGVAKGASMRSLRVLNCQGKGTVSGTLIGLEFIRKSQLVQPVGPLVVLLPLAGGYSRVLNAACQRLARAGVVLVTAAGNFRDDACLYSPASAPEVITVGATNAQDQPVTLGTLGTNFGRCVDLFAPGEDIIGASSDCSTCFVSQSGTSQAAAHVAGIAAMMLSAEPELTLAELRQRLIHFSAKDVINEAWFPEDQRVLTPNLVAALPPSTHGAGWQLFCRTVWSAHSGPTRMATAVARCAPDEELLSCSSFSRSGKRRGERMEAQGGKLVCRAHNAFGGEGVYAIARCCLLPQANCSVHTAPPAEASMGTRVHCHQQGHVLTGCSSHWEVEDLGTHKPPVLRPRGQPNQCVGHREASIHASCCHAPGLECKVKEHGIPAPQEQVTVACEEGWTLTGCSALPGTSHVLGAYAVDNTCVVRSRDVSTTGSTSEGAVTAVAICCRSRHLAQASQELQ

| Binder | Kd [nM] | koff [s⁻¹] | kon [M⁻¹ s⁻¹] |
| --- | --- | --- | --- |
| B1 | 0.531 | 4e-05 | 75300 |
| B2 | 1.28 | 9.92e-05 | 77500 |
| B3 | 3.7 | 0.000362 | 97900 |
| B4 | 0.676 | 5.09e-05 | 75300 |
| B5 | 0.609 | 6.27e-05 | 103000 |
| B6 | 0.379 | 2.68e-05 | 70700 |
| B7 | 0.12 | 1.21e-05 | 100000 |
| B8 | 0.332 | 2.22e-05 | 66800 |
| B9 | 0.215 | 2.09e-05 | 97000 |
| B10 | 6 | 0.000422 | 70300 |
| B11 | 2.23 | 0.000353 | 159000 |
| B12 | 5.87 | 0.000554 | 94400 |
| B13 | 0.839 | 5.8e-05 | 69200 |
| B14 | 0.637 | 4.91e-05 | 77000 |
| B15 | 7.99 | 0.0013 | 162000 |
| B16 | 3.16 | 0.000278 | 88100 |
| B17 | 0.637 | 4.91e-05 | 77000 |
| B18 | 4.25 | 0.000453 | 107000 |
| B19 | 1.3 | 0.000116 | 88000 |
| B20 | 0.6 | 6.63e-05 | 108000 |
